Tested on: T1, Pol6-67-X2 (Clostridium phage phiCPV4)
T1 sequence: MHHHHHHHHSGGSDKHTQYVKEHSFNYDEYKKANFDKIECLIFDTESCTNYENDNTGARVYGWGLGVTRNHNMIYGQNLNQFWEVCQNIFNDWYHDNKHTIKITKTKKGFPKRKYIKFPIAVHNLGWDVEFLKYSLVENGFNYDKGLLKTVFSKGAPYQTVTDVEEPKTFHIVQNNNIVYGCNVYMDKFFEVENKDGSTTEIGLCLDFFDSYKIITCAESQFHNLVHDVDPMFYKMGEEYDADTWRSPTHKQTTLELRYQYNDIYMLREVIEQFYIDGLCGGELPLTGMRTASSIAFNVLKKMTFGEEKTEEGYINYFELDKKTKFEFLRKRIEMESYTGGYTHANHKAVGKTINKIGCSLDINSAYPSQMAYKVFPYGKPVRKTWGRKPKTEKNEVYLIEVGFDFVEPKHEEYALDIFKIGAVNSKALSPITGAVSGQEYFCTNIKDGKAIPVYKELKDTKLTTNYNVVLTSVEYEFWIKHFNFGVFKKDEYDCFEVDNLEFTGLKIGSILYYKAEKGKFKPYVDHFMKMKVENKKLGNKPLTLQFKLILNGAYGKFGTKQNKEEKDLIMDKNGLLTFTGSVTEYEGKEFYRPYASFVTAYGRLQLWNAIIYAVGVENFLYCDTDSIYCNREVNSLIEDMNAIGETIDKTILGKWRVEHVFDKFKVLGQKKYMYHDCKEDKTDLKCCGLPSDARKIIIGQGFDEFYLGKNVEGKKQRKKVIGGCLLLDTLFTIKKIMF
Conditions: 5'-desthiobiotin-TEG; iSpC3 spacer between SEQ 15 and SEQ 22; 8x polymerase (26% at 1x); bound at 40 C with 1.2 uM polyphosphate nucleotides; extension 5 min at 30 C with 5 mM MgCl2, 10 uM nucleotides; % bound correlates …

## ACTGCTGATCTGTTCCTGAATCGACTACTACTATCATCATACCACCTCAGCTGCACGTTAAGTGCAGCTGAGGTGG [Fluorescent Hairpin DNA template]
  activity: 66 % extension
